Measurements reported in US20230263900A1, “DENDRIMER-DRUG CONJUGATE” (priority 2020, published 2023).

Assay: Pharmacokinetic studies of RHa-5 and RHa-15, single IV or SC administration, compared with RDV
Assay type: in vivo, animals (mammals)
Details: for F AUC(0-inf), plasma GS-441524 / F AUC(0-inf), plasma Remdesivir / F AUC(0-last), plasma GS-441524 / F AUC(0-last), plasma Remdesivir: relative to RDV IV
Procedure: Studies were undertaken to investigate the pharmacokinetic (PK) profile of two Remdesivir dendrimer conjugates following single intravenous (IV) or subcutaneous (SC) administration, and to compare them with that of Remdesivir (RDV).
The study consisted of two phases (PK Phase 1 and PK Phase 2) in a total of 6 animals (age 36-48 months) each part separated by a washout period: • PK Phase 1: Four animals (mammals) were studied. One male and one female were administered RHa-5 (BHALys [Lys]2[Lys]2[Lys]8[Lys]16[Lys]32[(α-NH-6N-TDA-Remdesivir)32(ε-NH-COPEG2000)32] 20% Remdesivir loading w/w) (test item) intravenously; and one male and one female were administered RHa-5 subcutaneously. Blood samples were taken over a period of 7 days. A minimum washout period of 14 days took place between the last blood sampling point of the PK Phase 1 and the start of PK Phase 2. • PK Phase 2: Six animals (mammals) were studied. One male and one female were administered RHa-15 (BHALys[Lys]2[Lys]4[Lys]8[Lys]16[Lys]32[(α-NH-3′ O-TDA-Remdesivir)32(ε-NH-COPEG2000)32] 18.63% Remdesivir loading w/w) (test item) intravenously; one male and one female were administered RHa-15 subcutaneously; and one male and one female were administered RDV (reference item). Blood samples were taken over a period of 7 days.
Formulation procedure: Test items RHa-5 and RHa-15 were reconstituted in Required volume of Water for injection (WFI), until a complete solution was obtained. The required volume of WFI was slowly added to RDV formulation (a lyophilate of 3.2% w/w RDV, 96.8% and sodium sulfobutylether-β-cyclodextrin adjusted to pH 3.5 with HCl) and shaken vigorously for 30 seconds. The solution was left for 20 minutes to ensure complete dissolution.
Administration: The clinical Remdesivir loading dose in humans is 200 mg. […] Allometric conversion of the dose from humans to small mammals results in an equivalent test dose of 6.17 mg/kg Remdesivir. Test item was administered as follows:
PK Phase 1: Two animal groups (A and B) of one male and one female each were administered test item RHa-5 at a Remdesivir equivalent dose of 6.17 mg/kg. Group A were administered the test item as a slow (30 seconds) intravenous bolus; and Group B were administered the test item over 30 seconds using the subcutaneous (SC) route into the back of the animal.
PK Phase 2: Three animal groups (C, D and E) of one male and one female each were included in this study phase. Groups C and D were administered test item RHa-15 at a Remdesivir equivalent dose of 6.17 mg/kg using the IV and SC routes, respectively. Group E were administered 6.17 mg/kg of RDV intravenously. IV administrations were done as a slow (30 seconds) bolus. SC administrations were done over 30 seconds.
Sampling schedule: Blood samples for PK analysis were collected as follows: • Day 1: pre-dose and at 15 min, 30 min, 1 h, 2 h, 4 h, 6 h, and 12 h after administration. • Days 2 to 8: 24, 48, 72, and 168 h after administration.
A blood volume of 2 mL was collected at each time point from the jugular vein with a 20-21G needle into a lithium heparin tube, and transferred into a tube containing 200 μL 0.15 M citric acid. Immediately following blood collection, the blood samples were mixed gently and kept on crushed ice until centrifugation at 1500 G for 10 min at 4° C. within 30 minutes of collection. Each plasma sample was stored frozen (˜80±10° C.).
The quantification range was 0.6 to 14400 ng/mL for Remdesivir and 0.6 to 14400 ng/mL for G441524.
Non-compartmental pharmacokinetic analysis was adopted to obtain the pharmacokinetic parameters from the blood concentration profiles.
The maximum concentration, Cmax, and time of maximum concentration, Tmax, were determined as the maximum measured concentration and its associated time. The area under the plasma concentration curve from 0 hours to the time of the last measurable concentration, AUC0-last, was calculated using linear trapezoidal estimation. […]

[1] = both sexes, in vivo, iv, 6.17 mg/kg
[2] = female, in vivo, iv, 6.17 mg/kg
[3] = IV, 6.17 mg/kg Remdesivir equivalent, female (4F)
[4] = IV, 6.17 mg/kg Remdesivir equivalent, female (4F; RDV 6F)
[5] = IV, 6.17 mg/kg Remdesivir equivalent, male (1M)
[6] = IV, 6.17 mg/kg Remdesivir equivalent, male (1M; RDV 3M)
[7] = IV, 6.17 mg/kg Remdesivir equivalent, mean of male and female
[8] = IV, 6.17 mg/kg Remdesivir equivalent, mean
[9] = SC, 6.17 mg/kg Remdesivir equivalent, female (5F)
[10] = SC, 6.17 mg/kg Remdesivir equivalent, male (2M)
[11] = SC, 6.17 mg/kg Remdesivir equivalent, mean

CCC(CC)COC(=O)[C@H](C)N[P@](=O)(OC[C@H]1O[C@@](C#N)(c2ccc3c(N)ncnn23)[C@H](O)[C@@H]1O)Oc1ccccc1 [RDV, 2-Ethylbutyl (2S)-2-{[(S)-{[(2R,3S,4R,5R)-5-(4-aminopyrrolo[2,1-f][1,2,4]triazin-7-yl)-5-cyano-3,4-dihydroxytetrahydrofuran-2-yl]methoxy}(phenoxy)phosphoryl]amino}propanoate]
AUC(0-inf) [1]: 332 ng·h/mL
AUC(0-t) [1]: 312 ng·h/mL
Cmax [1]: 364 ng/mL
Tmax [1]: 0.3 h
Clast, plasma Remdesivir (both, in vivo, iv, 6.17 mg/kg): 2 ng/mL
Time with plasma levels of Remdesivir greater than 10 ng/ml (both, in vivo, iv, 6.17 mg/kg): about 1 hour
Time with plasma levels of Remdesivir greater than 100 ng/ml (both, in vivo, iv, 6.17 mg/kg): about 30 minutes
t1/2last, plasma Remdesivir (both, in vivo, iv, 6.17 mg/kg): 7.3 h
tlast, plasma Remdesivir (both, in vivo, iv, 6.17 mg/kg): 36 h
AUC(0-inf) [2]: 293 ng·h/mL
AUC(0-t) [2]: 265 ng·h/mL
Cmax [2]: 267 ng/mL
Tmax [2]: 0.25 h
Vd [2]: 3920 L/kg
concentration at 48 h [2]: 1.8 ng/mL
t1/2last, plasma Remdesivir [2]: 10.7 h
tlast, plasma Remdesivir [2]: 48 h
Clearance from blood (in vivo, iv): rapidly cleared from blood
AUC(0-inf) (male, in vivo, iv, 6.17 mg/kg): 370 ng·h/mL
AUC(0-t) (male, in vivo, iv, 6.17 mg/kg): 360 ng·h/mL
Cmax (male, in vivo, iv, 6.17 mg/kg): 462 ng/mL
Tmax (male, in vivo, iv, 6.17 mg/kg): 0.25 h
Vd (male, in vivo, iv, 6.17 mg/kg): 1130 L/kg
concentration at 24 h (male, in vivo, iv, 6.17 mg/kg): 1.8 ng/mL
t1/2last, plasma Remdesivir (male, in vivo, iv, 6.17 mg/kg): 3.9 h
tlast, plasma Remdesivir (male, in vivo, iv, 6.17 mg/kg): 24 h

BHALys[Lys]2[Lys]4[Lys]8[Lys]16[Lys]32[(α-NH-3′O-TDA-Remdesivir)32(ε-NH-COPEG2000)32] [RHa-15]
C0, plasma GS-441524 [3]: 1 ng/mL
C0, plasma Remdesivir [3]: 691 ng/mL
F AUC(0-inf), plasma GS-441524 [3]: 0.8 x-fold
F AUC(0-inf), plasma Remdesivir [3]: 14.8 x-fold
F AUC(0-last), plasma GS-441524 [3]: 0.7 x-fold
F AUC(0-last), plasma Remdesivir [3]: 16.3 x-fold
Clast, plasma GS-441524 [4]: 10.5 ng/mL
Clast, plasma Remdesivir [4]: 1.8 ng/mL
t1/2last, plasma GS-441524 [4]: 19.0 h
t1/2last, plasma Remdesivir [4]: 10.1 h
tlast, plasma GS-441524 [4]: 72 h
tlast, plasma Remdesivir [4]: 72 h
C0, plasma GS-441524 [5]: 1 ng/mL
C0, plasma Remdesivir [5]: 664 ng/mL
F AUC(0-inf), plasma GS-441524 [5]: 0.8 x-fold
F AUC(0-inf), plasma Remdesivir [5]: 12.1 x-fold
F AUC(0-last), plasma GS-441524 [5]: 0.7 x-fold
F AUC(0-last), plasma Remdesivir [5]: 12.4 x-fold
Clast, plasma GS-441524 [6]: 10.9 ng/mL
Clast, plasma Remdesivir [6]: 1.8 ng/mL
t1/2last, plasma GS-441524 [6]: 21.5 h
t1/2last, plasma Remdesivir [6]: 10.0 h
tlast, plasma GS-441524 [6]: 72 h
tlast, plasma Remdesivir [6]: 72 h
C0, plasma GS-441524 [7]: 1 ng/mL
C0, plasma Remdesivir [7]: 677 ng/mL
Clast, plasma GS-441524 [7]: 11 ng/mL
Clast, plasma Remdesivir [7]: 2 ng/mL
t1/2last, plasma GS-441524 [7]: 20.3 h
t1/2last, plasma Remdesivir [7]: 10.0 h
tlast, plasma GS-441524 [7]: 72 h
tlast, plasma Remdesivir [7]: 2 h
F AUC(0-inf), plasma GS-441524 [8]: 0.8 x-fold
F AUC(0-inf), plasma Remdesivir [8]: 13.5 x-fold
F AUC(0-last), plasma GS-441524 [8]: 1 x-fold
F AUC(0-last), plasma Remdesivir [8]: 14 x-fold
Clast, plasma GS-441524 [9]: 1 ng/mL
Clast, plasma Remdesivir [9]: 2 ng/mL
t1/2last, plasma GS-441524 [9]: 24.5 h
t1/2last, plasma Remdesivir [9]: 31.5 h
tlast, plasma GS-441524 [9]: 168 h
tlast, plasma Remdesivir [9]: 168 h
F AUC(0-inf), plasma GS-441524 [9]: 0.8 x-fold
F AUC(0-inf), plasma Remdesivir [9]: 14.8 x-fold
F AUC(0-last), plasma GS-441524 [9]: 0.8 x-fold
F AUC(0-last), plasma Remdesivir [9]: 16.3 x-fold
Clast, plasma GS-441524 [10]: 1 ng/mL
Clast, plasma Remdesivir [10]: 2 ng/mL
t1/2last, plasma GS-441524 [10]: 26.2 h
t1/2last, plasma Remdesivir [10]: 41.3 h
tlast, plasma GS-441524 [10]: 168 h
tlast, plasma Remdesivir [10]: 168 h
F AUC(0-inf), plasma GS-441524 [10]: 0.9 x-fold
F AUC(0-inf), plasma Remdesivir [10]: 12.1 x-fold
F AUC(0-last), plasma GS-441524 [10]: 0.9 x-fold
F AUC(0-last), plasma Remdesivir [10]: 12.4 x-fold
Clast, plasma GS-441524 [11]: 1 ng/mL
Clast, plasma Remdesivir [11]: 2 ng/mL
t1/2last, plasma GS-441524 [11]: 25.3 h
t1/2last, plasma Remdesivir [11]: 36.4 h
tlast, plasma GS-441524 [11]: 168 h
tlast, plasma Remdesivir [11]: 168 h
F AUC(0-inf), plasma GS-441524 [11]: 0.8 x-fold
F AUC(0-inf), plasma Remdesivir [11]: 13.5 x-fold
F AUC(0-last), plasma GS-441524 [11]: 1 x-fold
F AUC(0-last), plasma Remdesivir [11]: 14 x-fold
Plasma Remdesivir t1/2 and AUC compared to RDV delivered IV (delivered IV or SC): substantially extended plasma Remdesivir t1/2 and increased AUC
